B1: PF0014 from Pyrococcus furiosus (natural protein, UniProt Q8U4R0 1-128, looked up)
chain: MVVEIPLLSGIARRTLDALMRNPIRTVEIRNARNYMTLEKVKEGDLVFLTYESLEDVMRGTEGIIAMVTRMEKSHQRVPWEESDEREISICRVQLKLVGLGRVVEVQEKNGVVFVKVREMLHHEISMG
notes: PF0014, Pyrococcus furiosus, an archaeal protein without functional annotation; Monomeric by HS-AFM when isolated; ten copies in the complex with PbaA
B2: N-terminally hexahistidine-tagged PbaA (natural protein, Pyrococcus furiosus)
chain: MEEKKPVNLVLPEVENAIFIEGYPGVGLVGHIAANFLAKELDMDLIGYVDSLFIPPMSLILEGRPTPPLRFYGKNNIIIAIADIFLPPTLVNEIAKEIVNYLKKVNAEKVISLAGMGIGFFKDTFEVWGIGGSEEENKELESLGVKILKYGSITGMSGKLLWEASRAGLKSYVLLGETFGDRPDPRAAANVVEVLNKMLGLNVSVEPLLKEAEMIEEQLRRMHEQMEEARRKMERQYETMYL
notes: PbaA (PF0015), Pyrococcus furiosus; The His tag was labelled with a monoclonal anti-histidine-tag antibody (R&D Systems) in the cryo-EM sample; the antibody is only a tool; May be the same preparation as m1 if the tag was never removed there; not shown: His6, N-terminal, kept
B3: PbaA (PF0015) from Pyrococcus furiosus, full-length (natural protein, UniProt Q8U4Q9 1-242, looked up)
chain: B2 chain
notes: PbaA (PF0015), Pyrococcus furiosus, full-length; cloned from P. furiosus genomic DNA; Homopentameric ring when isolated; two pentameric rings in the 10:10 complex with PF0014; also called full-length PbaA; PbaA pentamer

Experiments:
[1] = biological target: PbaA_(CΔ30), mutant PbaA with deletion of 30 C-terminal amino acid residues (Pyrococcus furiosus); experiment: SEC + other: negative stain EM; PbaA_(CΔ30) alone, in the absence of PF0014
[2] = biological target: PbaA_(CΔ30), mutant PbaA with deletion of 30 C-terminal amino acid residues (Pyrococcus furiosus); experiment: cryo-EM structure; purified PbaA_(CΔ30)/PF0014 complex; map EMD-0755 at 7.3 Å with D5 symmetry and 8.5 Å with C1 symmetry
[3] = biological target: B3; experiment: native MS; purified PbaA/PF0014 complex (20 μM) exchanged into 150 mM ammonium acetate pH 9.0, 2-fold diluted, nanoflow ESI, SYNAPT G2-Si; conditions: both partners purified
[4] = biological target: the molecule itself; experiment: cryo-EM structure; hexahistidine-tagged PbaA/Trx-PF0014 complex treated with excess anti-histidine-tag monoclonal antibody for 2 h at 4 °C; map at 14 Å, C1 symmetry
[5] = biological target: the molecule itself; experiment: HS-AFM; isolated proteins, top views on APTES-mica, tapping mode, room temperature

## PbaA_(CΔ30), mutant PbaA with deletion of 30 C-terminal amino acid residues (domain or fragment)
[1]
  stoichiometry N: 14 protomers
[2]
  stoichiometry N: 5 protomers

## B1
[3]
  stoichiometry N: 1 PF0014 per PbaA (10:10)

## B2
[4]
  stoichiometry N: 5 protomers

## B3
[5]
  stoichiometry N: 5 protomers

From publication PMC6992696, “Supramolecular tholos-like architecture constituted by archaeal proteins without functional annotation” (Scientific Reports, 2020)
